Experimental data: patent US10966923
Each block holds one molecule with its values, some of them ahead of it.

What was measured:
VEGF = VEGF (UniProt P15692); assay: VEGF incubated with particles, particulate spun out, free VEGF in the supernatant measured by ELISA
[1] = molecular target: Abraxane (albumin-bound paclitaxel) (UniProt P02768); assay: flow cytometry of particles stained with goat anti-mouse IgG and PE; ABX alone as comparison
[2] = molecular target: AB160 (nanoparticle of albumin-bound paclitaxel and bevacizumab, ratio about 10:4, average particle size 160 nm) (UniProt P02768); assay: flow cytometry of particles stained with goat anti-mouse IgG and PE
[3] = molecular target: T1, Abraxane (albumin-bound paclitaxel) (UniProt P02768 25-609); assay: VEGF incubated with particles, particulate spun out, free VEGF in the supernatant measured by ELISA
T1 construct: also called ABX; Paclitaxel Albumin-stabilized Nanoparticle Formulation
Method: The VEGF was incubated with the nanoparticles for 2 hours at room temperature. The suspension was spun at 6000 rpm for 15 minutes, supernatants were collected and free VEGF was measured by ELISA. Briefly, ELISA plates were coated with capture antibody overnight at 4° C. Plates were washed, blocked and standards and samples were added. After washing, detection antibody was added and plates were developed with substrate (R and D Systems, Minneapolis, Minn.). […] The concentration of unbound VEGF was determined with a standard curve from 0 to 2000 pg/ml.

% VEGF unbound (VEGF): < 10%
Molecule: AB160 (nanoparticle of albumin-bound paclitaxel and bevacizumab, ratio about 10:4, average particle size 160 nm) (from UniProt P02768 25-609)

% positive [1]: 6.7%
% positive [2]: 41.2%
Molecule: goat anti-mouse IgG (antibody)

binding result [3]: no binding (tested: 2000 pg/ml VEGF)
B1: VEGF (ligand, UniProt P15692-4 27-191, looked up)
chain: APMAEGGGQNHHEVVKFMDVYQRSYCHPIETLVDIFQEYPDEIEYIFKPSCVPLMRCGGCCNDEGLECVPTEESNITMQIMRIKPHQGQHIGEMSFLQHNKCECRPKKDRARQENPCGPCSERRKHLFVQDPQTCKCSCKNTDSRCKARQLELNERTCRCDKPRR
notes: Soluble VEGF
